target: Angiotensin converting enzyme (rabbit lung acetone powder, Sigma; supernatant of the extract) (rabbit) (UniProt P12822); test: cell-based or functional assay
Chain of UniProt P12822 (P12822 34-1310 limits assumed): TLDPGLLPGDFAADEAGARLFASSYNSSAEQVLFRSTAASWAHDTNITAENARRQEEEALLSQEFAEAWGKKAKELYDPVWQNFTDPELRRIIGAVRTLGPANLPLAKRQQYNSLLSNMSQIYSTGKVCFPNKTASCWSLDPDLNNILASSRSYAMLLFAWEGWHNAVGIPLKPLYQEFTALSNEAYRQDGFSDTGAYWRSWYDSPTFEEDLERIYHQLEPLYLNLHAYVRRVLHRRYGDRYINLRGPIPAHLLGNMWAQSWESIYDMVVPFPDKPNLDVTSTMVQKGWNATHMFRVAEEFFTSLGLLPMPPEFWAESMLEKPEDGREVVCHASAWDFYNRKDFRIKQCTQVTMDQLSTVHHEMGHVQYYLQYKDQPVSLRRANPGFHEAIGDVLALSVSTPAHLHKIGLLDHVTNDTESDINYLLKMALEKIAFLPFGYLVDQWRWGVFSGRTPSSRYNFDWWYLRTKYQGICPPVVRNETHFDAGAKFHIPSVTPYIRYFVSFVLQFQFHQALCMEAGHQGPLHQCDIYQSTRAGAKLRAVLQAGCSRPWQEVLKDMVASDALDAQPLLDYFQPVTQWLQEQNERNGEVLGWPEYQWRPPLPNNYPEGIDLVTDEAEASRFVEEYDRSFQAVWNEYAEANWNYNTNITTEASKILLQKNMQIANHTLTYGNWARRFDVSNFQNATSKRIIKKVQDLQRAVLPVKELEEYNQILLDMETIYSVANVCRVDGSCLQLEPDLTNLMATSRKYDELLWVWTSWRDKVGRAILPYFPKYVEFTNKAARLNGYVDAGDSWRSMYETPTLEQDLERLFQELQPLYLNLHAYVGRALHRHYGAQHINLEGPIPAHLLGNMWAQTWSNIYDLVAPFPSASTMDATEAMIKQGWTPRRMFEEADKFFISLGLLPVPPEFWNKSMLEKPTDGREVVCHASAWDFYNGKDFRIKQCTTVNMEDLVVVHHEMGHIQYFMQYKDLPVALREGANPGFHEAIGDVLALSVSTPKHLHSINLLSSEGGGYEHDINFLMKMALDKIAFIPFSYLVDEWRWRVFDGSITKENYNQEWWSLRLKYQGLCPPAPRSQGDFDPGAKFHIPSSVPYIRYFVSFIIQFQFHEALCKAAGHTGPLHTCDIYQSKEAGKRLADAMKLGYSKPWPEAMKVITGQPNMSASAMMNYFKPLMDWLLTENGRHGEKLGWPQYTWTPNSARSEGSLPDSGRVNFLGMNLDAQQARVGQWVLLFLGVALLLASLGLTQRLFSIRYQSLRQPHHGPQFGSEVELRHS

Substance | IC50 (angiotensin converting enzyme inhibitory activity, Bz-Gly-His-Leu substrate, OD228 of hippuric acid) [µg/mL]
Fraction E-10: ethanol-soluble fraction of E-6 | 50
Fraction E-6: concentrated thermolysin hydrolysate of homogenized dried bonito | 110
Fraction E-3: membrane-penetrating fraction of E-1 | 30
Fraction E-8: membrane-penetrating fraction of E-6 | 35
Fraction E-7: membrane-concentrated fraction of E-6 | 310
Fraction E-4: ethanol precipitate of E-1 | 200
Fraction E-5: ethanol-soluble fraction of E-1 | 40
Fraction E-1: concentrated thermolysin hydrolysate of the hot-water-extracted residue of dried bonito | 80
Fraction E-9: ethanol precipitate of E-6 | 200
Fraction E-2: membrane-concentrated fraction of E-1 | 300

From patent publication US7034002
